Experimental data reported in the DeepSol protein solubility set.

Assay: soluble on expression in E. coli; label from the status in PepcDB or PDB records

Sequence | soluble on expression in E. coli
SSGLSESKQTHVHLRNVDAATLQIIITYAYTGNLAMNDSTVEQLYETACFLQVEDVLQRCREYLIKKINAENCVRLLSFADLFSCEELKQSAKRMVEHKFTAVYHQDAFMQLSHDLLIDILSSDNLNVEKEETVREAAMLWLEYNTESRSQYLSSVLSQIRIDALSEVTQRAWFQGLPPNDKSVVVQGLYKSMPKFFKPRLGMTKEEMMIFIEASSENPCSLYSSVCYSPQAEKVYKLCSPPADLHKVGTRCNS | soluble
MSRKFPSFIVDAFTTKSFAGNPAAVCLIPEVFKDQEYLKIAAEFNLSETAFPVPIGSTDFKTCSQFSLRWFTPKTEVPLCGHATLATSHVLFNEVGNVNKEIKFDTQSGVLIAKRDEKGNVEMNFPEYDLASVKFNDTPNPLQGIFSEFEAPSFLFEVIKCVVPTEMIIESVVYSSKSRKLIVIVDPETTKFELEAVRIDCSKMLEIHDGSFVRGLAISLRPSNPMAQGFVDSSDEPYDYACRYFAPWVGIDEDPATGSAQCVMGPFWSKMLGKNELYAFQAFPTRGAQFRIRLQDDRVILNGPSVTVLRGELALN | not soluble
MSLKEYKSKIEFSVYSTSGMKTRMEDYYLCIKNMNKMIQKEKKELTYFGVFDGHVGTSAADYCNFKLYNEIVRSKSFPKNIENAIQDGIINVENGFKEIAMKTKVNAGTTLAIVMIYDNTIYTANVGDSEIVVCYNDGSYVVTSEKHNPSVDKEKARIESAGGKVFYNHGWRVDGLLGVSRSIGDESMKKYVICQPKIWSKAIDSSFQFIIVACDGFWNVFKYEDAINLARNYLFNYSFSNEEDKDSNGIILPRNKGDVSRYLIDIALKRQSFDNITVTICYFNEGHHHHHH | soluble
MGSDKIHHHHHHMQILIYSYNYHPEPIGIAPLMTELAEGLVKRGHQVRVITGMPNYPQRQIYDRYRGKLYVTEQKNGVKIQRSYLRIKSKPNLIDRLLLELSFVFTSLPQALKGERPDVILLTIPPLLVCLPATLIGWLYNCPVVLNVQDILPEAGVRVGLIKNKLMIQALEALEKFAYRTAHTISVIADGFVDNLINKGVPANKIACIPNWVNLNFIRPLPKVNNSWRATHQLDGKFVVLYSGNIALTQGLETVIEAAARLRHLKEIIFVVAGESQALERLQKHCLACGADNVLLLTLQAREKLPQMLAAADVGLIVQKCNVISFNMPSKIPLLLASGRPIVGSVPALGTAAKAIRESGGGVIVEPESAGALAAAVLDLYHQPELAAQLGCKGRKFAVENYSFEQALDRYEELFADAIAKRATNLDILPEMSSKQSLVDI | not soluble
MLKDQDRIFTNLYGLKDKSLKGVMARGHWDGTKQIIEKGRDWIINEMKASGLRGRGGAGFPTGLKWSFMPKENDGRPHYLVVNADESEPGTCKDREILRNDPHTLIEGCVIAGFAMGAHTAYIYVRGEYMREREALQAAIDECYDAGLLGKNNKNGWDYDIYVHHGAGAYICGEETALLESLEGKKGQPRLKPPFPANMGLYGCPTTVNNVESIAVAPTILRRGASWFSSIGRPNNVGTKLFMVSGHVERPCTFEDALGLSFRELIEHHCGGIRGGWDNLLGVIPGGASCPIVRGEDMKDAIMDFDGMREVKSSFGTGGMIVMDKSTDVIKAIARIAAFFKHESCGQCTPCREGTGWMWRVLERMVKGNAQKREIDMLFEVTKQIEGHTICALGDAAAWPVQALIRNFRPEIEKRIDQYTYRAMDDGAVLEAAEAAALEHHHHHH | not soluble
MGSDKIHHHHHHMSHQSTHPHHTWVQSHHPVHLETKSPPHKEPMFYYFAYGSCMCPVDLKRSLGENTHPYIIGPGVLKGYRLGFYLYLPSRKCGVLDIVKDPKASVKGVLYQLPLRLSEYLDQREGVSQNLYRHESVEIHSHSRVYQDVRTYVVVNKSEEEVAPNDWYFNVVLRGAVTCGLPEEYCWHLFNHMHKLQQRHQEQKFRRSA | not soluble
MGCGQLDRVDSILVGMSYYNFPSPQGIGNVLVGKAKQTVRIRIPSTNLRKEVVRVGGLLSVSVMAVALSSCSAHPESSLSKSNQLGYAVNDRLVTTNAGSTEGASTNAQLLAGRLYPAPYVSGPKGQLIPNLSMASAQVLPGINQKIVYTISPDAVYSDGEAVTCDDYLLAFTAGTYDYVFDSYMPLMKQIDKVECKPRDREVTVTLKENFGPRWRQLFPAGVILPAHAIARKMGVTLEDLNTVLQSRDVDALQPIAEVWNRGFSLDQFDPDLQVSSGPYKVDRVGDRGEVYLTRNPHYGGQPAEIESVVVWPKGANLKELKDTGSLEIAEVTSSKEIDWLDRNDSTNSFDVQAQSGVLTEELLLANAGVFATRENRQAFASCIDQSSIASESSELSGVEVAPVTARTIRANDPMAGHVKDLTEAHLHSDVEQARRLAGQTIAIGYEGPDARMEAIVANIRRSCEPAGIIVVDAHQEGSGIRDLSRSFTTDHGYQFDKIGTIDVVLKALDPATEFESVATTSNNIAATRQAELSTWDVVPSIPLASQPRVFVVDRRVSNVVLNTDLAGIGWNMDRWFFSKNSK | not soluble
GPGSMTTAASEGIVSREQLQMMLHVILHSTDNNERRNVEKSVVQLLTTPSTLTLLMVMLRDVQGSSPGVRQLAAVLLRKKVLSLWRTIPSESRGDFKGALLEQLGCEPVKAVRLALAHLVTRVAKADAMDEDGGWPELNYAIRAAVIDPRAEMRELAMVLAYSVAEVMSEADTHCLPVVEAVLQGMLDSEDAVQRSAVKAVGTLFVFMRGQTKVWEQLLQQLVPQCLALLTKCGTEETKTNLCVDVLDLLEQLVEDLSVKKHGALLRSVALEVLSVMTNGAIQPRVRQSCAEVLASLVNQKPKFVSTTVLEPLVSACVQVMSEDNAISLPEVAHTEGMENCDDSQSDENDAADMLHVDPPCLFAGRLLSTIATKVAAKSFTGALLPLISPVAQSPQAVGPTGAKSFDPRSCLFGRG | not soluble
MGSDKIHHHHHHMNTIYNTLRTDKGYKVYEGYLYEITGEECEEALDLVIPKNIVFADTDTCGYTFLLNEDGTVYDDVTFYKFDDKYWLASHKALDSYLDNINFDYTVTDISDEYKMLQIEGRYSGEIAQSFYEYDISTLNFRTLIEMTYKGEKGYLARFGFSGEFGYQFFLPSSIFATFVSDVCEGIAEYGDELDRYLRFEVGQPITDIYQQEEYSLYEIGYSWNLDFTKEEFRGRDSLLEHIRSATVKSVGFSTKEKLASGTPVLFDDQIVGKIFWIADEKDSSENYLGLMIVNQTYAHSGVTFVTEDGQILKTQSSPYCIPESWNKE | not soluble
MGTSSFTFPGFYRAKNMRSPECLDLLDSMNHFILHCHWEHADLNRTSLTERKRLGSKYEYENWFEEKRENSGTKFIKRSSSSKEIHYNCALVTNGDNRQFKKSKKLDQYCASGKVQFHDSGSVDVLGCCSHAGHDT | not soluble
VTEEEIHAMLEEGSVAGIIEQQEHEMVRNVFRLDDRQLGSLMVPRADIIYLDTALPLEENMKRVVESEHSRFPVCHNGLQSLLGVVNAKQLLAQTIKGGVTNLAEHLQPCVYVPETLTGMELLDHFRTSGTQMVFVVDEYGEIQGLVTLQDMLEAVTGEFA | not soluble
MSLMFHVVDDSEMLREMLVDMIEIYDCNVMTFASASEYLEYVRSDAFKAPSAVLTDVHMPQMSGYEMMEQVLAIDPSIRFAILSGEPDIPARYQDKVCLFLGKPYTGDQIQNMIYIFKQCELNSASEGHHHHHH | soluble
MAGHSHWAQIKHKKAKVDAQRGKLFSKLIREIIVATRLGGPNPEFNPRLRTAIEQAKKANMPWENIERAIKKGAGELEGEQFEEVIYEGYAPGGVAVMVLATTDNRNRTTSEVRHVFTKHGGNLGASGCVSYLFERKGYIEVPAKEVSEEELLEKAIEVGAEDVQPGEEVHIIYTVPEELYEVKENLEKLGVPIEKAQITWKPISTVQINDEETAQKVIKLLNALEELDDVQQVIANFEIPEEILQKVGLEHHHHHH | not soluble
MPVDQSRQYLRIRDQLAADIAQGVLQVKLPSERELAERFLCTRITLREALQQLETEGLVYRENRRGWFVAPPRIRYNPTRTTGFMEYVSAQGRQPRTETLHAERRAAGAWLAKRMGLEDSAPVYFLQRRRWVDERPVLIELIALDAGWCPGLLDHDLDTSLMSLLRERFGLQPTRCQLAMHPTALNAAQAEPLQLAPGSPALYLERLSYAEGQRVVEFDQEFWRPDALEIVLDAAYPGA | not soluble
